Measured values taken from patent publication US20200062856A1 (XDCEXPLORER SHANGHAI, published 2020).

Columns and labels:
[1] = target: mouse TPBG protein, full-length, on the cell surface (mouse) (UniProt Q9Z0L0); assay: FACS, CHOk1-mTPBG 3A3 cells
[2] = target: human TPBG protein, full-length, on the cell surface (human) (UniProt Q13641); assay: FACS, CHOk1-hTPBG 3A2F1 cells
[3] = target: cynomolgus TPBG protein, full-length, on the cell surface (cynomolgus) (UniProt Q4R8Y9); assay: FACS, CHOk1-cTPBG 3F13G4 cells
[4] = target: human TPBG protein, full-length, on the cell surface (human) (UniProt Q13641); assay: FACS, HEK293 clone 293F-hTPBG 4A8
[5] = target: human TPBG protein, full-length, on the cell surface (human) (UniProt Q13641); assay: FACS, HEK293 clone 293F-hTPBG 4A9
[6] = target: human TPBG protein, full-length, on the cell surface (human) (UniProt Q13641); assay: FACS, HEK293 clone 293F-hTPBG 4B9
[7] = target: human TPBG protein, full-length, on the cell surface (human) (UniProt Q13641); assay: FACS, HEK293 clone 293F-hTPBG 4C3
[8] = target: human TPBG protein, full-length, on the cell surface (human) (UniProt Q13641); assay: FACS, HEK293 clone 293F-hTPBG 4C5
[9] = target: human TPBG protein, full-length, on the cell surface (human) (UniProt Q13641); assay: FACS, HEK293 clone 293F-hTPBG 4E1
[10] = target: human TPBG protein, full-length, on the cell surface (human) (UniProt Q13641); assay: FACS, HEK293 clone 293F-hTPBG 4F9
[11] = target: human TPBG protein, full-length, on the cell surface (human) (UniProt Q13641); assay: FACS, HEK293 clone 293F-hTPBG 4G1
[12] = target: human TPBG protein, full-length, on the cell surface (human) (UniProt Q13641); assay: FACS, HEK293 clone 293F-hTPBG 4G6
[13] = target: human TPBG protein, full-length, on the cell surface (human) (UniProt Q13641); assay: FACS, HEK293 clone 293F-hTPBG 5A9
[14] = target: human TPBG protein, full-length, on the cell surface (human) (UniProt Q13641); assay: FACS, HEK293 clone 293F-hTPBG 5D4
[15] = target: human TPBG protein, full-length, on the cell surface (human) (UniProt Q13641); assay: FACS, HEK293 clone 293F-hTPBG 5E5
[16] = target: human TPBG protein, full-length, on the cell surface (human) (UniProt Q13641); assay: FACS, HEK293 clone 293F-hTPBG 5E6
[17] = target: human TPBG protein, full-length, on the cell surface (human) (UniProt Q13641); assay: FACS, HEK293 clone 293F-hTPBG 5G8
[18] = target: human TPBG protein, full-length, on the cell surface (human) (UniProt Q13641); assay: FACS, HEK293 clone 293F-hTPBG 5H6
[19] = target: human TPBG protein, full-length, on the cell surface (human) (UniProt Q13641); assay: FACS, HEK293 clone 293F-hTPBG 4H12
[20] = target: human TPBG protein, full-length, on the cell surface (human) (UniProt Q13641); assay: FACS, HEK293 clone 293F-hTPBG 5A11
[21] = target: human TPBG protein, full-length, on the cell surface (human) (UniProt Q13641); assay: FACS, HEK293 clone 293F-hTPBG 5C12
[22] = target: human TPBG protein, full-length, on the cell surface (human) (UniProt Q13641); assay: FACS, HEK293 clone 293F-hTPBG 5G11
[23] = target: human TPBG protein, full-length, on the cell surface (human) (UniProt Q13641); assay: FACS, HEK293 clone 293F-hTPBG 4E1 (NO 8)
human TPBG-hFc protein [24] = target: T1, human TPBG-hFc protein (human, UniProt Q13641 32-355); assay: ELISA, coated human TPBG-hFc 1.0 ug/mL; control IgG at 2 nM
T1 construct: range 32-355; Expressed in HEK293 cells, purified on protein A; also called immunogen A; hFc tagged TPBG protein; not shown: human IgG Fc fragment of the pCpC vector
T1 sequence (looked up): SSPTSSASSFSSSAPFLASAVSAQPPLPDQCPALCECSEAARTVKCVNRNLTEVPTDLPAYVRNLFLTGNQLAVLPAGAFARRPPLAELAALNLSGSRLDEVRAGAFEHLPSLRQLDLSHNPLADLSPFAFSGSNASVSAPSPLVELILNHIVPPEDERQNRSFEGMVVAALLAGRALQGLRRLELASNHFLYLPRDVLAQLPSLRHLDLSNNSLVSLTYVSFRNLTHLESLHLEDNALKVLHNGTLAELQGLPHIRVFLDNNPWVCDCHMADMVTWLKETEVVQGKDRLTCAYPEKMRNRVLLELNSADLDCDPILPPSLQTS

human TPBG-hFc protein [25] = target: T1, human TPBG-hFc protein; assay: ELISA, coated human TPBG-hFc 1.0 ug/mL; control IgG at 20 nM
human TPBG-hFc protein [26] = target: T1, human TPBG-hFc protein; assay: ELISA, coated human TPBG-hFc 1.0 ug/mL; control IgG at 0.2 nM
human TPBG-hFc protein [27] = target: T1, human TPBG-hFc protein; assay: ELISA, coated human TPBG-hFc 1.0 ug/mL; control IgG at 200 nM
human TPBG-hFc protein [28] = target: T1, human TPBG-hFc protein; assay: ELISA, coated human TPBG-hFc 1.0 ug/mL; control IgG at 0.02 nM
human TPBG-hFc protein [29] = target: T1, human TPBG-hFc protein; assay: ELISA, coated human TPBG-hFc 1.0 ug/mL; control IgG at 0.002 nM
human TPBG-hFc protein [30] = target: T1, human TPBG-hFc protein; assay: ELISA, coated human TPBG-hFc 1.0 ug/mL; control IgG at 0.0002 nM

mouse IgG (isotype control) (antibody) showed a Cellular MFI [1] of 2.38 MFI, a Cellular MFI [2] of 3.24 MFI and a Cellular MFI [3] of 2.66 MFI. For the same substance, the Cellular MFI [4] was 3.1 MFI, the Cellular MFI [5] was 6.3 MFI and the Cellular MFI [6] was 6.3 MFI. For the same substance, the Cellular MFI [7] was 3.2 MFI, the Cellular MFI [8] was 5.6 MFI and the Cellular MFI [9] was 5.2 MFI. It also gave a Cellular MFI [10] of 3.9 MFI, a Cellular MFI [11] of 4 MFI and a Cellular MFI [12] of 3.1 MFI. It also gave a Cellular MFI [13] of 5 MFI, a Cellular MFI [14] of 3 MFI and a Cellular MFI [15] of 5.6 MFI. It also gave a Cellular MFI [16] of 2.6 MFI, a Cellular MFI [17] of 6 MFI and a Cellular MFI [18] of 3 MFI. It also gave a Cellular MFI [19] of 4 MFI, a Cellular MFI [20] of 4.6 MFI and a Cellular MFI [21] of 3.7 MFI. For the same substance, the Cellular MFI [22] was 4.1 MFI, the Cellular MFI [23] was 4.8 MFI and the OD450 nm (human TPBG-hFc protein [24]) was 0.1 OD450 nm. For the same substance, the OD450 nm (human TPBG-hFc protein [25]) was 0.11 OD450 nm, the OD450 nm (human TPBG-hFc protein [26]) was 0.11 OD450 nm and the OD450 nm (human TPBG-hFc protein [27]) was 0.24 OD450 nm. It also gave an OD450 nm (human TPBG-hFc protein [28]) of 0.1 OD450 nm, an OD450 nm (human TPBG-hFc protein [29]) of 0.1 OD450 nm and an OD450 nm (human TPBG-hFc protein [30]) of 0.11 OD450 nm.
